Changes are numbered by the printed parent chain. Names may count otherwise. Where two headings read alike, the source gives them in different places.
Tests used:
[1] = target: T1, human prolactin receptor (PRLR) (human, UniProt P16471 25-622); assay: cell-based or functional assay
T1 sequence: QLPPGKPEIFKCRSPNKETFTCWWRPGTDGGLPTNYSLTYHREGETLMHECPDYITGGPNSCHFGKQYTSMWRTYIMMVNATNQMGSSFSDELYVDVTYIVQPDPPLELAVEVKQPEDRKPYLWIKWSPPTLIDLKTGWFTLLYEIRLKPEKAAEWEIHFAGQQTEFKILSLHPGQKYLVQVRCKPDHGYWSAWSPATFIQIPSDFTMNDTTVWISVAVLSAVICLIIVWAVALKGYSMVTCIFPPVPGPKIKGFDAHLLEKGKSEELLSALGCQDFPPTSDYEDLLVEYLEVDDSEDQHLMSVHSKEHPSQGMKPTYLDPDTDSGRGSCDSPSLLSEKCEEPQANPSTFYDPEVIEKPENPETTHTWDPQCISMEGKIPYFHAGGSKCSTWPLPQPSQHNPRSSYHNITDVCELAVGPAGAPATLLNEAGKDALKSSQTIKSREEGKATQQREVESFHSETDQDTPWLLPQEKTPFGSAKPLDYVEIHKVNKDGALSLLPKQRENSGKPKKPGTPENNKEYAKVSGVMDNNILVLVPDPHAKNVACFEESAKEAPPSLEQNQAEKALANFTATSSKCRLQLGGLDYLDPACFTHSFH

[2] = target: T1, human prolactin receptor (PRLR); assay: cell-based or functional assay; remark: listed apart in the source
[3] = target: T1, human prolactin receptor (PRLR); assay: cell-based or functional assay; remark: listed apart in the source
[4] = target: T1, human prolactin receptor (PRLR); assay: cell-based or functional assay; remark: listed apart in the source
[5] = target: T1, human prolactin receptor (PRLR); assay: cell-based or functional assay; remark: listed apart in the source
[6] = target: T2, mouse PRLR with an HA tag on HEK293 cells (mouse, UniProt Q08501 20-608); assay: FACS on HEK293/mPRLR cells
T2 construct: whole, on cells; also called HEK293/mPRLR; rodent PRLR; not shown: HA tag
T2 sequence (looked up): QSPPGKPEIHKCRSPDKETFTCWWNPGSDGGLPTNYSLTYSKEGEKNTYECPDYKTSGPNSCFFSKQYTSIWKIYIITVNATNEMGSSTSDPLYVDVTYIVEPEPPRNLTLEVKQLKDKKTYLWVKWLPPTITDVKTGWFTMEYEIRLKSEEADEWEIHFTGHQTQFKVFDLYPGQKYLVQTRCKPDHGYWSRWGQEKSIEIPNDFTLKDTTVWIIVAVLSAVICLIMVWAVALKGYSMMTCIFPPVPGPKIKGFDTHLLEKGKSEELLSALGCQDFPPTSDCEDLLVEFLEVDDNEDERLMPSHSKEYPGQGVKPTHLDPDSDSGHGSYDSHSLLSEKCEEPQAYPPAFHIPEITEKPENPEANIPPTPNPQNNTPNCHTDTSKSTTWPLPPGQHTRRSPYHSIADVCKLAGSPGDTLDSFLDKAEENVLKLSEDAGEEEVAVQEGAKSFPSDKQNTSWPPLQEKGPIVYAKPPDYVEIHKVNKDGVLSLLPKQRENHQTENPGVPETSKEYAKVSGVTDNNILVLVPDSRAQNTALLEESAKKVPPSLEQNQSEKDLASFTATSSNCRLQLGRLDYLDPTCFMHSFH

B1: H1H6782P-DM1 (antibody, human IgG1, V domains shown)
VH: EVQLVESGGGLVQPGRSLRLSCAASGFTFDDYAMHWVRQAPGKGLEWVSGIIWNSGHIGYGDSVKGRFTISRDNAKKSLYLQMNSLRAEDTALYYCARDSGRYQSYFDYWGQGTLVTVSS
VL: DIQMTQSPSTLSASVGDRVTITCRASHIISSWLAWYQQKPGKAPKVLIFKASSLESGVPSRFSGSGSGTEFTLTISSLQPDDFATYYCQQYNTYSRTFGQGTKVEIK
modifications: DM1 conjugated through SMCC linker; attachment residues not stated
% Kill, MCF7/ATCC cells [1]: 70% | % Kill, MCF7/PRLR cells [1]: 80% | IC50, cell viability, MCF7/ATCC cells [1]: 250 nM | IC50, cell viability, MCF7/PRLR cells [1]: 0.3 nM | % Kill, T47D cells [2]: 100% | IC50, cell viability, T47D cells [2]: 3 nM | % Kill, PC3/PRLR cells [3]: 64% | IC50, cell viability, PC3/PRLR cells [3]: 0.92 nM | IC50, cell viability, T47D cells, + 15 nM PRL [4]: 2 nM | IC50, cell viability, T47D cells, without PRL [4]: 1 nM | % Kill, MCF7/PRLR cells [5]: 85% | % Kill, MCF7 cells [5]: 57% | % Kill, T47D cells [5]: 74% | IC50, cell viability, MCF7/PRLR cells [5]: 0.65 nM | IC50, cell viability, MCF7 cells [5]: 120 nM | IC50, cell viability, T47D cells [5]: 4.19 nM

B2: H1H6953N (antibody, human IgG1, V domains shown)
VH: EVQLLESGGGLVQPGGTLRLSCAASGFTFSAYAMSWVRQAPGKGLEWVSSINVRAGDTYYADSVKGRFTISRDNSKNTLFLLMNSLRAEDTAAYYCAKARYSSNWGFDFWGQGTLVTVSS
VL: DIVMTQSPDSLTVSLGARTTINCQSSQTILHSSNNHNYLAWYQQKPGLPPKLLIYWSSTRESGVPDRFSGSGSGTDFTLTISSLQAEDVAIYYCQQYSNTPYTFGQGTKLEIN
notes: Tested with human IgG1 Fc (H1H)
binding result [6]: no binding

B3: H1H6959N2 (antibody, human IgG1, V domains shown)
VH: EVQLVESGGGLVQPGRSLRLSCAASGFTFDDYAMHWVRQAPGKGLEWVSGISWHSGIIGYADSVKGRFTISRDNAKNSLYLQMNSLRTEDAALYYCAKIGSYFYFDSWGQGTLVTVSS
VL: EIVLTQSPGTLSLSPGERATLSCRASQSVSSNYLAWYQQKPGQAPRLLIYGASSRATGIPDRFSGSGSGTDFTLTISRLEPEDFAVYYCQQFGSSGYTFGQGTNLEIK
notes: as for B2
binding result [6]: no binding

B4: H1H6960N (antibody, human IgG1, V domains shown)
VH: EVQLVESGGGLVKPGGSLRLSCAASGITFSSYSMNWVRQAPGKGLEWVSSISTRSSLIHYADSVKGRFTISRDNAKNSLYLQMNSLRDEDTAVYYCARWDAAAAFDYWGQGTLVIVSS
VL: DIQLTQSPSFLSASVGDRVTITCWASQGISSYLAWYQQKPGKAPKLLIYVASTLQSGVPSRFSGSGSGTEFTLTISSLQPEDFATYFCQQLNSYPLTFGGGTKVEIK
notes: as for B2
binding result [6]: no binding

B5: H1H6966N (antibody, human IgG1, V domains shown)
VH: QVQLVQSGAEVQKPGASVKVSCKVSGYTLTALSIHWVRQAPGKGLEWMGNFDPGDGETIHAQKFQGRVTMTGDTSTDTAYMELSSLRSEDTAVYYCVGVTFDYWGQGTLVTVSS
VL: EIVMTQSPATLSVSPGERATLSCRASQSVASNLAWYQQKPGQAPRLLLYGASTRATGIPARFSGSGSGTEFTLTISSLQSEDFALYYCQHYNNWPLTFGGGTKVEIK
notes: as for B2
binding result [6]: no binding

B6: H1H6967N (antibody, human IgG1, V domains shown)
VH: EVQLVESGGDLVHPGRSLRLSCAASGFPFDEYAMHWVRQVPGKGLEWVSGISWSNNNIGYADSVKGRFTISRDNAKNSLYLQMNSLRPEDTAFYYCAKSGIFDSWGQGTLVTVSS
VL: B5 VL with A30S, S31R, N32D, L48I, Y49H, T69A, T74I, L85V, H90Q
notes: as for B2
binding result [6]: no binding

B7: H1H6975N (antibody, human IgG1, V domains shown)
VH: EVHLVESGGGLVQPGGSLRLSCAASGFTFSSYEMNWVRQTPGKGLEWISHISSRSVIIYYADSVKGRFTISRDNAKNSLFLQMNSLRAEDTAVYFCAGITIFGIPEYWGQGTLVTVSS
VL: EIVLTQSPATLSLSPGERATLSCRASQSVSSYFAWYQQKPGQAPRLLIYDASSRATGIPTRFSGSGSGTDFTLTISSLEPEDFAVYYCQQRSSWPITFGQGTRLEIK
notes: Tested with human IgG1 Fc (H1H); also called H1H6975P
binding result [6]: no binding

B8: H1H6976N (antibody, human IgG1, V domains shown)
VH: EVQLLESGGGFVQPGGSLRLSCAASGFTFSSYAMSWVRQAPGKGLEWVSIISSNGRYTYYADSVKGRFTISRDNSKNTLYLQMNSLRAEDTAVYYCATVTGDWFDPWGQGTLVTVSS
VL: DIQLTQSPSFLSASVGDRVTITCWASQDIDISLAWYQQKPGKAPKLLIYAASTLQSGVPSKFSGSGSGTDFTLTISSLQPEDFSTYYCQQLNSYPITFGQGTRLDIK
notes: as for B2
binding result [6]: no binding

B9: H1H6765P (antibody, human IgG1, V domains shown)
VH: EVQLVESGGGVVRPGGSLRLSCVGSGFSFDDHGMNWVRQGPGKGLEWVSGFNWNGGSTNYAESVKGRFTISRDNARNSLFLQMNSLRAEDTALYYCVRGRSGWFNDAFDVWGPGTMVTVSS
VL: EIVLTQSPGTLSLSPGERATLSCRASQTINSNYLAWYRQKPGQTPRLLIYGTSSRATGIPDRFSGSGSGTDFSLTISRLEPEDFAVFYCQQYAGLPTFGPGTKVDIK
binding result [6]: no binding

B10: H1H6774P (antibody, human IgG1, V domains shown)
VH: EVQLVESGGGLAQPGGSLRLSCVASGFTFSTYWMSWVRQAPGKGLDWVGNIKQDGSEQNYVDSVRGRFTISRDNAKNSLFLQMNSLRAEDTGVYYCATLLTKGDYWGQGTLVTVSS
VL: DIQMTQSPSSLSASVGDSVTITCRASQDISNYLDWFQQKPGKAPKSLIYAASILQGGVPSRFSGSGYGTDFTLTISSLQPEDFATYYCRQYKTYPFTFGPGTKVDIK
binding result [6]: no binding

B11: H1H6781P (antibody, human IgG1, V domains shown)
VH: EVQLVESGGDLVQPGESLRLSCTASGFTFNSYEMNWVRQAPGKGLEWVSYISSSGGTKYYVDSVKGRFTISRDNAKKSLYLQMNSLRADDTALYYCARLNGVDVFDIWGQGTMVTVSS
VL: DIQMTQSPSSLSASVGDRVTITCRASQDIFNYLAWFQQKPGKVPELLISAASTLQSGVPSRFSGSGSGTYFTLTISSLQPEDIATYYCQRYNSAPLTFGGGTKVEIK
binding result [6]: no binding

B12: H1H6782P (antibody, human IgG1, V domains shown)
VH: B1 VH
VL: B1 VL
binding result [6]: no binding

B13: H1H6783P (antibody, human IgG1, V domains shown)
VH: QVQLQQSGPGLVKPSQTLSLTCAISGDSVSSNTFAWNWIRQSPSRGLEWLGRTYYRSKWYIDYAESVKSRITITPDTSKNQFSLQLNSVTPEDTALYYCAGGYTYAPRGAFDIWGQGTMVTVSS
VL: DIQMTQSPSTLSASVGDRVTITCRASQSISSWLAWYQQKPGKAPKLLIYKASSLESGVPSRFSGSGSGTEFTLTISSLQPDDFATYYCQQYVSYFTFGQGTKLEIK
binding result [6]: no binding

B14: H1H6785P (antibody, human IgG1, V domains shown)
VH: EVQLVESGGGLVQPGGSLRLSCAASGFTFSSYEMNWVRQAPGKGLEWISYISSRGGTIYYADSIKGRFTIYRDNARNSLYLQMNSLRAEDTAIYYCARLSGVDIFDIWGQGTMVTVSS
VL: B11 VL with D28G, F30S, F36Y, E45K, S49Y, A50F, S65G, Y70D, I83V
binding result [6]: no binding

B15: H1H6790P (antibody, human IgG1, V domains shown)
VH: EVQLVESGGGLVQPGGSLRLSCAASGFTFSSYAMTWVRQAPGKGLEWVSAITGSVGNTYYADSVKGRFTISRDNSKNTLYLQMNSLGAEDTAEYYCAKGAGMTTNWYLDLWGRGTLVTVSS
VL: DIVMTQSPDSLAVSLGARATINCKSSQSVLYSSNNQNYLTWYQQKPGQPPKLLIKWASTRESGVPDRFSGSGSGTDFTLTISSLQAEDVAVYYCQQYASSPYTFGQGTKLEIK
binding result [6]: no binding

Reference: US20180185504A1 (Regeneron, published 2018)
